For the assay, the target named is Recombinant full-length MMTV Gag containing hexa-histidine tag at the C-terminus (Pr77^Gag) (mouse mammary tumor virus (MMTV)). Kind of assay: dynamic light scattering; purified Pr77^Gag-His6 alone in storage buffer (50 mM Tris-HCl pH 8.0, 1 M NaCl); the hydrodynamic radius (about 6.00 nm) from volume and number distributions is read as the oligomer's size.

For “Recombinant full-length MMTV Gag containing hexa-histidine tag at the C-terminus (Pr77^Gag) (natural protein)”, the stoichiometry N amounted to 3.

For orientation: stoichiometry N means a count of units in the complex or per binding partner.

The values are drawn from article PMC11449360.
